Measured values from patent publication US20160368995A1 (University of California, published 2016).

What was measured:
Assay in all cases: binding and/or signaling studies
[1] = biological target: T1, CCR2 (human, UniProt P41597-2 1-360)
T1 sequence: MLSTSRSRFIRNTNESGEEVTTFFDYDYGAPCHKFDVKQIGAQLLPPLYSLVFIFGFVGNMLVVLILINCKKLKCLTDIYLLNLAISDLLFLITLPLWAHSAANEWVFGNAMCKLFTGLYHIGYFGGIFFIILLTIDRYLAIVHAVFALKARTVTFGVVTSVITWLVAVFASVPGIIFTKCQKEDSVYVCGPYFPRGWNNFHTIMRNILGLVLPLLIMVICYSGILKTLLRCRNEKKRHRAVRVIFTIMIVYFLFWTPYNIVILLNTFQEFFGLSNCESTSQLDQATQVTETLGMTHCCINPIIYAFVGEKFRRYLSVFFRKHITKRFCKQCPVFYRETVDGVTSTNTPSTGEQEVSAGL
Method: (§1) Radioligand displacement studies of various chemotaxis receptors were carried out. For the radioligand binding assay, membranes from HEK293T cells transiently expressing the respective chemokine receptors were incubated with ˜[…] ¹²⁵I-chemokine and increasing concentrations of chemokine (control) or CXCL17. Cells were incubated for 3 h at 4° C. and washed twice with binding buffer containing 0.5 M NaCl. After harvesting the samples with lysis buffer, the remaining cell-bound radioactivity was counted.

[2] = biological target: T2, CXCR3 (UniProt P49682 1-368, limits assumed)
T2 construct: whole, on cells
T2 sequence (looked up): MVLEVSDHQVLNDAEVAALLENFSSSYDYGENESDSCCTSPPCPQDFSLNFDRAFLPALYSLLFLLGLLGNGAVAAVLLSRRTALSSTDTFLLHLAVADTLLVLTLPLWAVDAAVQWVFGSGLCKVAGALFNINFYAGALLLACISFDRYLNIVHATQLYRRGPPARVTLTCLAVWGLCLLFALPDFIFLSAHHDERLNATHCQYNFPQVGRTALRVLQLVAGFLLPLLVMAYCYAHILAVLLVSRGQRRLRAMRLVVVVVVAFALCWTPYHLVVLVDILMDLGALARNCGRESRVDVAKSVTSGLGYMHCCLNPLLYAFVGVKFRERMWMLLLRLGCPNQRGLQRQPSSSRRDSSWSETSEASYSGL
Method: as §1

[3] = biological target: T3, CXCR4 (human, UniProt P61073-2 1-356)
T3 construct: The construct used is not described
Method: as §1

[4] = biological target: T4, CXCR7 (human, UniProt P25106 1-362)
T4 construct: Tested on CXCR7 expressing cells
Method: as §1

[5] = biological target: T5, CCX-CKR (UniProt Q9NPB9 1-350, limits assumed)
T5 construct: whole, on cells
T5 sequence (looked up): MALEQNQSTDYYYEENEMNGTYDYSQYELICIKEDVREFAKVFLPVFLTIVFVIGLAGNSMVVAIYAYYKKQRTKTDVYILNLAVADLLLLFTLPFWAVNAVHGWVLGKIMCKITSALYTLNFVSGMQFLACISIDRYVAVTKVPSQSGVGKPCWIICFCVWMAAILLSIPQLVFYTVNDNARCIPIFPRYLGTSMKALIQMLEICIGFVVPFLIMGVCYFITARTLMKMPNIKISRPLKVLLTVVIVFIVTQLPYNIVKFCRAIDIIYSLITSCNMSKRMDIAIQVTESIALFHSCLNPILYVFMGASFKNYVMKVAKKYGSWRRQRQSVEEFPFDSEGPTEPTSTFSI
Method: as §1

T3 sequence (P61073 other isoform, or with tags, fused parts or gaps): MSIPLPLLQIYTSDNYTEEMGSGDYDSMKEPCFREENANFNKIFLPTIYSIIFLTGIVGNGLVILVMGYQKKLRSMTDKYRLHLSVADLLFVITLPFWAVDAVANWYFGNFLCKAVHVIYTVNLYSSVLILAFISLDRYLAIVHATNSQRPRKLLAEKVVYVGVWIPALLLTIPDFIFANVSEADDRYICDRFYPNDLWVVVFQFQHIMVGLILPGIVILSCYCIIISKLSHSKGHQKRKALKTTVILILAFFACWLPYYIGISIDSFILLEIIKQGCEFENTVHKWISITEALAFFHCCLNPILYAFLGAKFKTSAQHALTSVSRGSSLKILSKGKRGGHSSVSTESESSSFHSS
T4 sequence (P25106 whole entry): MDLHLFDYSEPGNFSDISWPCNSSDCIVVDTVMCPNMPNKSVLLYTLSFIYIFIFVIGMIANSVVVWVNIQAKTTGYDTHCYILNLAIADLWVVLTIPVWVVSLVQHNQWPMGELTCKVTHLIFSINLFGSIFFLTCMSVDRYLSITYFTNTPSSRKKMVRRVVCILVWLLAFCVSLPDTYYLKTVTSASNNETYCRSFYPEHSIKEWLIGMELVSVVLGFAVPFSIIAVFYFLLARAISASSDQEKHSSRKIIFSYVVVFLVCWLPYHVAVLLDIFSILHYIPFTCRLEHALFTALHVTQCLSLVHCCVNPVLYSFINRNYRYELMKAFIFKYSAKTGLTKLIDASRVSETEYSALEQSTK

binding result [1]: no binding
binding result [2]: no binding
binding result [3]: no binding
binding result [4]: no binding
binding result [5]: no binding
B1: recombinant human CXCL17 (chemokine (C-X-C motif) ligand 17) (ligand)
chain: SSLNPGVARGHRDRGQASRRWLQEGGQECECKDWFLRAPRRKFMTVSGLPKKQCPCDHFKGNVKKTRHQRHHRKPNKHSRACQQFLKQCQLRSFALPL
notes: Bought recombinant protein (R&D Systems); also called human recombinant CXCL17
